B1: Four and a half LIM domains protein 1 (Mus musculus), P97447-2 (parent)
chain: MSEKFDCHYCRDPLQGKKYVQKDGRHCCLKCFDKFCANTCVDCRKPISADAKEVHYKNRYWHDNCFRCAKCLHPLASETFVSKDGKILCNKCATREDSPRCKGCFKAIVAGDQNVEYKGTVWHKDCFTCSNCKQVIGTGSFFPKGEDFYCVTCHETKFAKHCVKCNKGLVKAPVWWPMKDNPGTTTASTAKNAP

Variants of: B1
Details: with suh_mouse Rbpj

| Variant | effect of a mutation on the interaction |
| --- | --- |
| W175A;W176A | disrupting interaction strength |

— IntAct's records for PubMed 24290140
